Laboratory results published in patent US20210147561A1 (published 2021).

Columns and labels:
[1] = target: T1, CD123 (interleukin-3 receptor alpha, IL3RA) (human, UniProt P26951 19-378)
T1 chain: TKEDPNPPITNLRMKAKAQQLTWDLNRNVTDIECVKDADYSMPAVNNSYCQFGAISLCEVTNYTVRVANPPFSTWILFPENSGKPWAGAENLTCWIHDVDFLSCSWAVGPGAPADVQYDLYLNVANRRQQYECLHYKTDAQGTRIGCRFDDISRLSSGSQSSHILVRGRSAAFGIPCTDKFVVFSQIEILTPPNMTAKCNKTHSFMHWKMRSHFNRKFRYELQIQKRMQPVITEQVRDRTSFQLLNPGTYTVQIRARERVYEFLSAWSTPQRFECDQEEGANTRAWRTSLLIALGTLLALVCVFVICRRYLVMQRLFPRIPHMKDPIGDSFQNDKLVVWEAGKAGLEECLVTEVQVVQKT

[2] = target: T1, CD123 (interleukin-3 receptor alpha, …)

Ka [1]: 4.81e+08 M⁻¹
Kd [2]: 2.08 nM
B1: 7G3_H1L1_Fab_His (XENP 13761) (antibody, V domains shown)
VH: QVQLVQSGAEVKKPGASVKVSCKASGYTFTDYYMKWVRQAPGQSLEWMGDIIPSNGATFYNQKFQGRVTMTVDRSTSTAYMELSSLRSEDTAVYYCTRSHLLRASWFAYWGQGTLVTVSS
VL: DFVMTQSPDSLAVSLGERATINCKSSQSLLNSGNQKNYLTWYQQKPGQPPKLLIYWASTRESGVPDRFTGSGSGTDFTLTISSLQAEDVAVYYCQNDYSYPYTFGGGTKLEIKR
